Laboratory results as given in patent US6566489 (GENERAL HOSPITAL, dated 2003).

Target: T1, GST alone (UniProt P08515 1-218 = GST)
T1 construct: Negative control
Assay: pull-down on GST beads, western blot with CS4E
Experimental: Fifteen µl of a 50% slurry of GST-S4BP bound to GST beads were incubated with 10 µg of soluble pMal-syndecan in 0.5 ml of lysis buffer that contained 1% BSA. After incubation for 30 minutes at room temperature with constant mixing, the reaction mixtures were placed on ice and washed 3× with lysis buffer followed by, 3 washes with lysis buffer containing 1 M NaCl. Protein bound to GST-S4BP beads was solubilized in SDS-PAGE buffer, electrophoresed, transferred to an Immobilon-P membrane and analyzed for bound syndecan-4 core protein using the avian specific syndecan-4 polyclonal antibody CS4E (Baciu et al. (1994) *J. Biol. Chem.* 269:696–703).

T1 sequence (P08515 whole entry): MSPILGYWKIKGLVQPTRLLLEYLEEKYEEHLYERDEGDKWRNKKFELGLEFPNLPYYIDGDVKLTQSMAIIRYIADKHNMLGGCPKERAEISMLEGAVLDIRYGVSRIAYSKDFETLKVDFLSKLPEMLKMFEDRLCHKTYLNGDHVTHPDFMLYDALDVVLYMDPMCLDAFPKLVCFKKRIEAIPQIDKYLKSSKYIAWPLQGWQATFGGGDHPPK

B1: pMal/syndecan-4 fusion protein, full length syndecan-4 core protein (S-4) (other, avian, UniProt P49416 20-197, looked up, not shown: large carriers)
chain: ESVRETETMDARWLDNVGSGDLPDDEDIGEFTPHLTSDEFDIDDTSGSGDYSDYDDAIYLTTVDTPAISDNYIPGDTERKMEGEKKNTMLDNEIIPDKASPVEANLSNKISMASTANSSIFERTEVLTALIAGGAVGLLFAVFLILLLVYRMKKKDEGSYDLGKKPIYKKAPTNEFYA
notes: Bacterially expressed, soluble, purified on a maltose column
Does B1 bind?
Result: no binding (tested: 10 µg of soluble pMal-syndecan in 0.5 ml)
